Substitutions are numbered along the chain they refer to. In names and notes the source's numbering stands. Like-named read-outs stand apart in the source and are kept apart here. Each block holds one binder with its values, some of them ahead of it.
Legend:
GST-SET7/9 (full length) [1] = biological target: T1, GST-SET7/9 (full length) (UniProt Q8WTS6 1-366); assay: pull-down
T1 sequence (looked up): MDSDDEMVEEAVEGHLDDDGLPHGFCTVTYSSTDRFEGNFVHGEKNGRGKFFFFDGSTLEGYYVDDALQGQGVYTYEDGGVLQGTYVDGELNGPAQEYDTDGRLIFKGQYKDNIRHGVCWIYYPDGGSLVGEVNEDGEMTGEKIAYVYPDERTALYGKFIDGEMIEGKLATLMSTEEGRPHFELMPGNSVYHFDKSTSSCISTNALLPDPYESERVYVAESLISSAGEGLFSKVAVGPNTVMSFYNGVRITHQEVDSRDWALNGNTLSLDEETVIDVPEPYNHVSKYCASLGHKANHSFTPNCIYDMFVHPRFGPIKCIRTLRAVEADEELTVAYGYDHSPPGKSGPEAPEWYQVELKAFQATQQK

GST-SET7/9 (full length) [2] = biological target: T1, GST-SET7/9 (full length); assay: pull-down; remark: listed apart in the source

binding result (GST-SET7/9 (full length) [1]): binds
B1: LIN28A carboxyl terminus (amino acids 125-209) (domain or fragment, UniProt Q9H9Z2 125-209, looked up)
chain: KGKSMQKRRSKGDRCYNCGGLDHHAKECKLPPQPKKCHFCQSISHMVASCPLKAQQGPSAQGKPTYFREEEEEIHSPTLLPEAQN

binding result (GST-SET7/9 (full length) [2]): binds
B2: 6×HIS-LIN28A (full length) (natural protein, UniProt Q9H9Z2 1-209, looked up)
chain: MGSVSNQQFAGGCAKAAEEAPEEAPEDAARAADEPQLLHGAGICKWFNVRMGFGFLSMTARAGVALDPPVDVFVHQSKLHMEGFRSLKEGEAVEFTFKKSAKGLESIRVTGPGGVFCIGSERRPKGKSMQKRRSKGDRCYNCGGLDHHAKECKLPPQPKKCHFCQSISHMVASCPLKAQQGPSAQGKPTYFREEEEEIHSPTLLPEAQN

binding result (GST-SET7/9 (full length) [2]): binds
B3: 6×HIS-LIN28A-K135R (full length) (natural protein, UniProt Q9H9Z2 1-209, looked up)
chain: B2 chain with K135R

From paper PMC4258232 (Cell stem cell, 2014)
